From patent publication US20130252983A1 (CORNELL UNIVERSITY, published 2013)

Target: mTOR (mammalian target of rapamycin) (UniProt Q9JLN9 1-2549)
Assay: co-immunoprecipitation of GAC proteins from Dbl-transformed cell lysates, Western blot with mTOR antibody
Excerpt: To test this, Dbl-transformed cells were transiently transfected with wild-type GAC, GACΔC and GAC (S103A), and then these proteins were isolated from cell lysates by immunoprecipitation.

B1: GAC (S103A), phospho-defective mutant of mouse glutaminase C (enzyme)
chain: HPWWGGGGRAKGPGAGGLSSSPSEILQELGKGGTPPQQQQQQQQQPGAAPPAAPGPKDSPGETDAFGNSEGKEMVAAGDNKIKQGLLPSLEDLLFYTIAEGQEKIPVHKFITALKSTGLRTSDPRLKECMDMLRLTLQTTSDGVMLDKDLFKKCVQSNIVLLTQAFRRKFVIPDFMSFTSHIDELYESAKKQSGGKVADYIPQLAKFSPDLWGVSVCTVDGQRHSIGDTKVPFCLQSCVKPLKYAIAVNDLGTEYVHRYVGKEPSGLRFNKLFLNEDDKPHNPMVNAGAIVVTSLIKQGVNNAEKFDYVMQFLNKMAGNEYVGFSNATFQSERESGDRNFAIGYYLKEKKCFPEGTDMVGILDFYFQLCSIEVTCESASVMAATLANGGFCPITGERVLSPEAVRNTLSLMHSCGMYDFSGQFAFHVGLPAKSGVAGGILLVVPNVMGMMCWSPPLDKMGNSVKGIHFCHDLVSLCNFHNYDNLRHFAKKLDPRREGGDQRHSFGPLDYESLQQELALKDTVWKKVSPESSDDTSTTVVYRMESLGERS
notes: Transiently expressed in Dbl-transformed NIH 3T3 cells and isolated by immunoprecipitation; not shown: V5 tag
binding result: no binding
